Measured values: US20160257710A1, “SELECTIVE INHIBITORS OF PROTEINASE 3” (INSERM (INSTITUT NATIONAL DE LA SANTÉ ET LA RECHERCHE …, priority 2013, published 2016)
Substitutions are numbered along the chain they refer to. Where no end group is shown, it is not given here. [ ]: non-standard residue; d: D form. The star is where a group is joined. EDDnp = O=[N+]([O-])c1ccc(NCCN*)c([N+](=O)[O-])c1; AlaP = not defined here

What was measured:
PR3I217R [1] = molecular target: T1, PR3I217R (Homo sapiens, UniProt P24158, I221R); assay: Hydrolysis of FRET substrates, specificity constant kcat/KM; type: biochemical
T1 construct: made in house; host or cells: Drosophila S2 cells
T1 sequence (P24158 28-248 I221R limits assumed): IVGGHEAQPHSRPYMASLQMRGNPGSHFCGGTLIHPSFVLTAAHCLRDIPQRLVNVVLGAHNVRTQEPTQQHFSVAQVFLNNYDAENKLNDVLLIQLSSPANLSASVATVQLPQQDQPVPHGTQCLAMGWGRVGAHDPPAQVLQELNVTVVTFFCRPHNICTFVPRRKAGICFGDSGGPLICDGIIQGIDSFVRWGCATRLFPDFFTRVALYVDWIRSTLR
Experimental: (§1) Recombinant PR3K99L and […] were produced in Drosophila S2 cells using the calcium phosphate method, and stable cell lines were selected using puromycin. Proteins were purified by affinity chromatography on Chelating Sepharose and analyzed by SDS-PAGE. The total protein concentration was determined with a BCA Protein Assay
(§2) Another critical difference between the two proteases is the replacement of a charged arginyl residue at position 217 in HNE by an Ile in PR3 in the vicinity of the S4 subsite. We investigated the importance of the S4 subsite in PR3 by producing two recombinant PR3 molecules with a […] substitution at position 99 (PR3K99L) and an Ile for Arg substitution at position 217 (PR3I217R). Wild type and recombinant PR3 were then assayed with FRET substrates derived from the PR3/NE substrate Abz-QPMAVVQSVPQ-EDDnp, and bearing either a negatively charged residue (Abz-QDMAVVQSVPQ-EDDnp) or a positively charged residue (QKMAVVQSVPQ-EDDnp) at P4. Wild type and recombinant proteases all cleave the original substrate at the V—V bond with about the same kcat/Km (Table 2).

PR3K99L [2] = molecular target: T2, PR3K99L (Homo sapiens, UniProt P24158, K115L); assay: as above; type: biochemical
T2 construct: made in house; host or cells: Drosophila S2 cells
T2 sequence (P24158 28-248 K115L limits assumed): T1 sequence (P24158 28-248 I221R limits assumed) with K88L, R194I
Experimental: as §1, §2

wtPR3 = molecular target: T3, wtPR3 (Homo sapiens, UniProt P24158); assay: as above; type: biochemical
T3 sequence (P24158 28-248): T1 sequence (P24158 28-248 I221R limits assumed) with R194I
Experimental: as §2
We observed that a large panel of amino acid residues could be accommodated at the PR3 P3 subsite using a series of FRET substrates but a Tyr was preferred at this position (Table 3).

Proteinase 3 = molecular target: T4, Proteinase 3 (Homo sapiens, UniProt P24158); assay: Protease inhibition assay, second order rate constant kobs/[I] (method of Tian and Tsou); type: biochemical
T4 sequence (P24158 28-248): T1 sequence (P24158 28-248 I221R limits assumed) with R194I
Experimental: The compounds of the invention are advantageously selective inhibitors of PR3. […] As described under the Examples below (see PR3 inhibition assay), and as is generally known, efficacy of particular inhibitors against a target protease, for example, recombinant human PR3, is determined by combining the target with a substrate (for example Suc-AanV-SBzI), both in the absence of the inhibitor and in the present of different concentrations of such inhibitor to be tested. Typically, the efficacy of irreversible inhibitors are measured in terms of the second order rate constant of inhibition value (11) or kobs/l. Preferred inhibitors of the invention have typically a kobs/I of more than 10 M^−1s^−1, preferably more than 100 M^−1s^−1, and more preferably of more than […].
(§3) The inactivation of proteases by substrate analog inhibitors in the presence of the substrate by competition for the enzyme-binding site, was measured by the method of Tian and Tsou (17). In this system, product formation in the presence of an irreversible inhibitor approaches an asymptote, as described by
(§4) log([P∞]−[P])=log [P∞]−0.43A[Y]t
(§5) where [P∞] is the concentration of product formed at time approaching infinity, [P] is the concentration of product at time t, [Y] is the inhibitor concentration, and A is the apparent inhibition rate constant in the presence of the substrate. A is given by
(§6) where k+0 is the rate constant for association of the inhibitor with the enzyme, K^−1 is the inverted Michaelis constant, and [S] the substrate concentration. The apparent inhibition rate constant A is the slope of a plot of log([P∞]−[P]) against t, to give the second-order rate constant of inhibition k+0

Elastase = molecular target: T5, Elastase (Homo sapiens, UniProt P08246); assay: as above; type: biochemical; settings: n.s where no significant inhibition
T5 sequence (P08246 30-267): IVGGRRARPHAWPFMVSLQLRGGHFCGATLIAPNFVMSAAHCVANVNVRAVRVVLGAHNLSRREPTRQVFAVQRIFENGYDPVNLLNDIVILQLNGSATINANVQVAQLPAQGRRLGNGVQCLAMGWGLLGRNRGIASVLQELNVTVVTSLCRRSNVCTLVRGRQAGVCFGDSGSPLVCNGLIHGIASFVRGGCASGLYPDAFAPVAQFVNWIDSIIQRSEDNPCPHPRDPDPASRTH
Experimental: as §3, §4, §5, §6

PR3 [3] = molecular target: T6, PR3 (Homo sapiens, UniProt P24158); assay: Residual activity of purified protease with FRET substrate in presence of increasing amounts of compound; type: biochemical; settings: PR3 1 nM final, 30 min incubation
T6 construct: in a lysate of purified human neutrophils; endogenous in cells; host or cells: purified human neutrophils (lysate)
T6 sequence (P24158 28-248): T1 sequence (P24158 28-248 I221R limits assumed) with R194I
Source text: (§7) Phosphonate inhibitors and their biotinylated and fluorescent derivatives were synthesized, purified and controlled by mass spectrometry as reported. Their purity was checked by HPLC (data not shown). Purified Ac-Asp-Tyr-Asp-Ala^P(O—C6H4-4-Cl)2 (compound 1) and Ac-Pro-Tyr-Asp-Ala^P(O—C6H4-4-Cl)2 (compound 2) were first assayed for their inhibitory properties by measuring the residual activity of the human neutrophil serine proteases PR3, HNE and CatG in the presence of increasing amounts of each compound. We used for this purpose the FRET substrates that we developed previously for each protease (18). An almost complete inhibition of PR3 (1 nM final) was obtained after a 30 min incubation time with 20 μM of compound 1 (FIG. 1) and 0.3 μM of compound 2 (FIG. 2). Recombinant PR3K99L, […], HNE and CatG were used in the same experimental conditions. […] This emphasizes the importance of the S2 and S4 subsites to discriminate between PR3 and HNE specificities. Significant inhibition of HNE was obtained using about 100 times more Ac-Pro-Tyr-Asp-Ala^P(O—C6H4-4-Cl)2 than required to inhibit PR3. […] We confirmed this observation kinetically by measuring the second order rate constants kobs/l by competition experiments between the PR3 substrate and each inhibitor (17). As expected the second order rate constant kobs/l for compound 2 was about 100 times greater than that for compound 1 (see Table 1).

HNE [4] = molecular target: T7, HNE (Homo sapiens, UniProt P08246); assay: as above; type: biochemical; settings: HNE 1 nM, same experimental conditions as PR3
T7 sequence (P08246 30-267): T5 sequence (P08246 30-267)
Source text: as §7

CatG [5] = molecular target: T8, CatG (Homo sapiens, UniProt P08311); assay: as above; type: biochemical; settings: CatG 1 nM, same experimental conditions as PR3
T8 sequence (P08311 21-244): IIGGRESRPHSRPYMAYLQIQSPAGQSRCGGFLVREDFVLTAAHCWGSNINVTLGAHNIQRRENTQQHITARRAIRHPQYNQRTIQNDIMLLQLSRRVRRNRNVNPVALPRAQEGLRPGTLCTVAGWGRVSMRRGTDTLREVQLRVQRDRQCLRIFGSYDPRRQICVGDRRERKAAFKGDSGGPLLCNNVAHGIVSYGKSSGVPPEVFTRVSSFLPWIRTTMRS
Source text: as §7

[6] = Stability of inhibitors in neutrophil lysate (preincubation before adding substrates); type: in vitro ADME, human; settings: one hour preincubation of neutrophil lysate-inhibitor mixture
Source text: (§8) We first studied the stability and the selectivity of compound 1, 2 and their biotinylated derivatives in a lysate of purified human neutrophils. […] Further, PR3 was selectively inactivated in the neutrophil lysate as shown by western blotting using biotinylated inhibitors.

PR3I217R [7] = molecular target: T1, PR3I217R; assay: Residual activity of recombinant PR3 mutant in presence of increasing amounts of compound; type: biochemical
Experimental: as §1, §7

PR3K99L [8] = molecular target: T2, PR3K99L; assay: as above; type: biochemical; settings: Lys99 replaced by Leu in S2 subsite
Experimental: as §1, §7

PR3 [9] = molecular target: T6, PR3; assay: Inhibition of PR3 in a lysate of purified human neutrophils; type: biochemical; settings: conditions as with purified proteases
Source text: as §8

HNE [10] = molecular target: T7, HNE; assay: Inhibition of protease activity in crude lung secretions of patients (IPF, cystic fibrosis); type: biochemical; settings: 30 min incubation, IPF and CF samples
CatG [11] = molecular target: T8, CatG; assay: as above; type: biochemical; settings: 30 min incubation, IPF and CF samples
PR3 [12] = molecular target: T6, PR3; assay: as above; type: biochemical; settings: 30 min incubation, IPF and CF samples
Experimental: Crude lung secretions of patients with chronic inflammatory disorders associating significant neutrophil recruitment (IPF, Cystic fibrosis) were used as biological material to assay the efficacy of phosphonate inhibitors. We first measured the rate of cleavage of the PR3 substrate in >3 IPF and >3 CF crude samples before and after incubation with compounds 2 and 4 (×μM final). All crude samples cleaved the PR3 substrate in the absence of inhibitor and the cleavage always occurred at the expected bond, i.e. the cleavage bond of PR3, as checked by HPLC. The PR3 concentration was in the 0.1-1 μM range in lung secretions, based on the rate of substrate hydrolysis. […] Further, the rate of PR3 inactivation in a crude biological sample […] that of purified PR3, which means that there is no adverse effect impairing the PR3 inhibition in lung secretions of patients with inflammatory disorders.

Which results are given for “ABZ-Gln-Asp-Met-Ala-Val-Val-Gln-Ser-Val-Pro-Gln-EDDnp (Abz-QDMAVVQSVPQ-EDDnp) [FRET substrate with negatively charged residue at P4]”?
factor of increase of kcat/Km versus original substrate, PR3I217R (PR3I217R [1]): 6 times; cleavage by PR3K99L (PR3K99L [2]): completely resists cleavage; factor of decrease of kcat/Km versus original substrate, wtPR3 (wtPR3): 3

With “Ac-Asp-Tyr-Asp-Ala^P(O—C6H4-4-Cl)2 (Ac-DYD[AlaP]; not fully specified (C-terminus); printed as Ac-Asp-Tyr-Asp-Ala^P(O—C6H4-4-Cl)2; reading uncertain; also: C-terminal Ala as phosphonate analogue (Ala^P)) [Compound 1]” as the substance, how does the “Proteinase 3 kobs/[I]” value (Proteinase 3) read?
Its value is 1.9 ± 0.3 M⁻¹ s⁻¹.

And the “Elastase kobs/[I]” value (Elastase)?
The value was “n.s”.

And the “concentration giving almost complete inhibition of PR3” value (PR3 [3])?
Its value is 20 µM.

And the “inhibition of HNE” value (HNE [4])?
Its value is “no significant inhibition”.

What about the “inhibition of CatG” value (CatG [5]) of the same substance?
Its value is “no significant inhibition”.

And the “inhibition potential after preincubation in neutrophil lysate” value [6]?
The value was “No loss of the inhibition potential”.

What about the “inhibition of the Ile217 to Arg217 PR3 mutant compared with PR3K99L” value (PR3I217R [7]) of the same substance?
Its value is “more efficient toward this mutant”.

And the “sensitivity of PR3K99L to inhibition compared with wt PR3” value (PR3K99L [8])?
Its value is “far less sensitive to inhibition”.

What about the “PR3 activity in neutrophil lysate” value (PR3 [9]) of the same substance?
Its value is “totally inactivated”.

What does the source list for “Biotin-Pro-Tyr-Asp-Ala^P(O—C6H4-4-Cl)2 [Compound 4]”?
Proteinase 3 kobs/[I] (Proteinase 3): 4168 ± 553 M⁻¹ s⁻¹; kobs/I range (Proteinase 3; PR3): ~10^3 M^−1s^−1; HNE activity in crude lung secretions (HNE [10]): remained unchanged; Elastase kobs/[I] (Elastase): n.s; CatG activity in crude lung secretions (CatG [11]): remained unchanged; hydrolysis of PR3 substrate in crude lung secretions (PR3 [12]): total inhibition
